The values that follow come from the nanobody polyreactivity screen of Harvey et al. (2022).

The data set is described as follows: yeast display, Sf9 membrane polyspecificity reagent, FACS + sequencing; frameworks hold sequencing errors. In a few lines: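 A nanobody's polyreactivity label depends on the gate it was sorted from. Yeast display cells were stained with 10% biotinylated, detergent-solubilized Sf9 membrane reagent for 1 hour at 4 °C, enriched on streptavidin microbeads and sorted by FACS. The low and high (top ~1%) gates were set on anti-HA fluorescence for expression and streptavidin fluorescence for reagent binding.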
For “QVQLVESGGGLVEAGGSLRLSCAASGYIFGSYAMGWYRHAPGKERELVASISKSGGSTYYADSVKGRFTISRDNAKNTVYLQMNSLKPEDTAVYYCAAAGIGGGGWGQGTQVTVSS”, the “polyreactivity (PSR sort gate)” value was “low polyreactivity”. For the sequence “QVQLVESGGGLVEAGGSLRLSCEASGFNFSRYVMGWYRQAPGKERELVAVISYRGGSTYYADSVKGRFTISRDYAKITVYLQMNSLKPEDTAVYYCNADTIPDGEDRYDYWGQGTQVTVSS”, the “polyreactivity (PSR sort gate)” value is on record as “low polyreactivity”. The value for “QVQLVESGGGLVEAGGSLRLSGAASGSIFRYYSMGWYRQAPGKERELVAAITYSGGTTYYADSVKGRFTISRDNAKNTVYLQMNSLKPEDTAVYYCAATFQANYFSGYYTVYLSDYRGQGTQVTVSS” was “low polyreactivity”; that for “QVQLVESGGGLVEAGGTLRLSCAASGSIFPINAMGWYRQAPGKQWELVAAITVSDGRTYYADSVKGRFTISRDTAKNTVYLQMNSLKPEDTAVYYCAKSSHAREYYYWGQGNQVTVSS” was “low polyreactivity”; that for “QVQLVESGGGLVHAGGSIRLSCSASGRTVGVNMGWYRQSPGKERELVAVISSGDSTNYADSVKGRFTISRDNAKNTFYLQMNSLKQEDTAVYYCNAYGSDRLTLDDYWGQGTQVTVSS” was “low polyreactivity”. The value for “QVQLVESGGGLVHAGGSLLLSCAASGFISSRYAMGWYRQAPGKERELVAAISRGGGSTYYADSVKGRFTISRDNAKNSVYLQMNSLKPEYTAVYYCAAAARGSPQYDYWGQGSQVTVSS” was “high polyreactivity”; that for “QVQLVESGGGLVHAGGSLLLSCSASGSIFTVNAMGWYRQAPGKERELVAAISSGGSTHYADSVKGRFTISRDNAKNTVYLQMISLKPEDTAVYYCAAVYVPYYGYYTRYDYWGQGTQVTVSS” was “low polyreactivity”. The value for “QVQLVESGGGLVHAGGSLRISCAASGRTFSRNAMGWYRQAPGKERELVATISRRGGSTNYADSVKGRFTISRDYAKNTVYLQMNSLKPDDTAVYYCAAGYRVRDDKVYGIVRPMDYWGQGTQVTVSS” was “high polyreactivity”; that for “QVQLVESGGGLVHAGGSLRLRCAASGRTFYFSNMGWYRQAPGKQRELVATIRWSAGSTYYADSVKGRFTISRDNAKNSVYLQMKSLKPEDTAVYYCNGDPYVYSSWQYGYWGQGTQVTVSS” was “high polyreactivity”; that for “QVQLVESGGGLVHAGGSLRLSCAACGNIFKYYTMGWYREAPGKERELVDAITSGGRTNYADSVKGRFTISRDNAKNTVYLKMNSLKPEDTAVYYCAAYDVIYSQGFDYWGQGTQVTVSS” was “low polyreactivity”. Consider “QVQLVESGGGLVHAGGSLRLSCAACGRTFGRYPMGSYRQAPGKERELVAAITVGGGSTYYADSVKGRFTISRDYAKNTVYLQMNSLKPEDTAVYYCNALHTYTYRYDYYYWGQGTQVTVSS”, for which the “polyreactivity (PSR sort gate)” value is recorded as “high polyreactivity”. “QVQLVESGGGLVHAGGSLRLSCAACGSIYKYNAMGWYRQAPGKERELVAAISYSGCSTYYSDSVNGRFTISRDNAKNTVYLQMNSLKPEDTAVYYCAKSPRASQYNMYDYWGQGTKVTVSS”: the “polyreactivity (PSR sort gate)” value was “high polyreactivity”.

Regarding “QVQLVESGGGLVHAGGSLRLSCAASGFIFGSYTMVWYRTAPGKERELVATITLSDGSTYYADSVNGRFTISRDNANNTVFLQMNSLKPEDTAVYYCNKDKVVVRYDYWGQGTQVTVSS”, the “polyreactivity (PSR sort gate)” value was “low polyreactivity”. Then “QVQLVESGGGLVHAGGSLRLSCAASGFILRSYGMGWYRQAPGKERELVAAITRGGSTYYADSVKGRFTISRDNAKNTVYLQMNSLKPEDTAVYYCAARTRYYSQQFDYWGQGTQVTVSS”, with “high polyreactivity”; and “QVQLVESGGGLVHAGGSLRLSCAASGFTFGQYAMGWYRQAPGKERELVAAIRSGGSTNYADSVKGRFTISRDNAKNTVYLQMNSLKPEDTAVYYCAAGYRRGWVTMGYWGQGTQVTVSS”, with “high polyreactivity”. The value for “QVQLVESGGGLVHAGGSLRLSCAASGFTFKENAMGWSRPAPGKERELVAAISSTGGSTYYADSVKGRFTISRDNATNNVYLQMHSLNPDDTAVYYCAASTYWYDGDYWGQGTQVTVSS” was “high polyreactivity”.

Take “QVQLVESGGGLVHAGGSLRLSCAASGFTFLYNSMGWYRQAPGKERELVASINSGGSTNYADSVKGRFTISRDNAKNTVYLQMNSLKPEDTAVYYCNAKRHVRKGDYWGQGTQVTVSS”: the “polyreactivity (PSR sort gate)” value is on record as “low polyreactivity”.

Consider “QVQLVESGGGLVHAGGSLRLSCAASGFTFRSYTMGWYRQAHGKERELVAAITSRGTSTYYADSVKGRFTISRDNAKNTVYLQMNSLKPEDTAVYYCAAPIYNGYASWQVYYWGQGTQVTVSS”, for which the “polyreactivity (PSR sort gate)” value is on record as “high polyreactivity”. The value for “QVQLVESGGGLVHAGGSLRLSCAASGFTLRKYVMGWYRQAPGKERELVAAITSYASSTYFADSVKGRFTISRDNSKNTVYLQMNSLKPEDSAVYYCAARRYGEPYGYWGQGTQVTVSS” was “high polyreactivity”.

For “QVQLVESGGGLVHAGGSLRLSCAASGGILVFYAMGWYRQAPGKERELVAAINVSGGSTYYADSVKGRYTISRDNAKNTVYLQMNSLKPEDTAVYYCAALGPYLDYGVQYGYWGQGTQVTVSS”, the “polyreactivity (PSR sort gate)” value is “low polyreactivity”. “QVQLVESGGGLVHAGGSLRLSCAASGGTFGHYTMGWYRQAPGKERELVAAISGSGGTTYYADSVKGRFTISRDNAKNTVYLQMNSLKPEDTAVYYCAAYSGAYRKWLYDYWGQGTQVTVSS”: the “polyreactivity (PSR sort gate)” value is “high polyreactivity”. In the case of “QVQLVESGGGLVHAGGSLRLSCAASGITFSDNTMGWYRQAPGKERELVAAISWRGGRTYYADSVKGRFTISRDYAKNTVSLQMNSLKPEDTAVYYCNAVTSSKARSSSYDYWGQGTQVTVSS”, the “polyreactivity (PSR sort gate)” value is “high polyreactivity”.

On to “QVQLVESGGGLVHAGGSLRLSCAASGLIFTNAMGWYRQAPGKEREFVAAINSSGGSTYADSVKGRFTISRDNAKNTVYLQMNSLKPEDTAVYFCAARVIYLYEYWGQGTQVTVSS”, for which the “polyreactivity (PSR sort gate)” value was “low polyreactivity”. The value for “QVQLVESGGGLVHAGGSLRLSCAASGLISYRYAMGWYRQAPGKERELVAAISWRGGSTYYADSVKGRFTISRDNAKNTVYLQMNSLKPDDTAVYYCNALGLGLFDYWGQGTQVTVSS” was “high polyreactivity”; that for “QVQLVESGGGLVHAGGSLRLSCAASGNIFVEYAMGWYRQAPGKERELVAAITNSGGRTHYADSVKGRFTISRDNAKNTVYLQMNSLKPEDTAVYYCAAPTKYRSRRYYWGQGTQVTVSS” was “high polyreactivity”. For the sequence “QVQLVESGGGLVHAGGSLRLSCAASGRIFIANAMGWYRQAPGNERELVAGIRGSGGRTYYADSVKGRFTISRDNAKNTVYLQMNSLKPEDTAVYDCNARTPGRLGRFDYWGQGTQVTVSS”, the “polyreactivity (PSR sort gate)” value was “low polyreactivity”. Then “QVQLVESGGGLVHAGGSLRLSCAASGRIFRSYAMGWYRQAPGKERELVAAITSRGGSTYYADYVKGRFTISRDNAKNTVYLQMNILKTEDTAVYYCAADSFRLGVAAWTRYNYWGQGTQVTVSS”, with “high polyreactivity”; and “QVQLVESGGGLVHAGGSLRLSCAASGRIFVRYAMGWYRQAPGKERELVAAINWRGSSTYYADSVKGRFTISRDNAKNTVYLQMNSLKPEDTAVYYCNTAQRYRVYRYDYWGQGTQVTVSS”, with “high polyreactivity”. Take “QVQLVESGGGLVHAGGSLRLSCAASGRIFYVYAMGWYRQAPGKEREFVASISWSGGSTYYADSVKGRFTISRDNAKNTVYLQMNSLKPEDTAVYYCAARVVRYGYKYYYWGQCTQVTVSS”: the “polyreactivity (PSR sort gate)” value was “low polyreactivity”. “QVQLVESGGGLVHAGGSLRLSCAASGRTFGKYAMGWYRQAPGKERELVAAISSGGTTYYADSVKGRFTISRDNAKNTVYLQMNSLKPEDTAVYYCAADPRYPYNYWGQGTQVTVSS”: the “polyreactivity (PSR sort gate)” value is given as “low polyreactivity”.
